In the supplement of paper PMC9112550, “Optimization of the antimicrobial peptide Bac7 by deep mutational scanning” (BMC Biology, 2022):

system: Escherichia coli TOP10; experiment: shrunken log2 fold change of peptide-encoding DNA abundance (4.5 h post-induction vs induction); higher = less antimicrobial activity (less host growth inhibition); conditions: time post-induction: 4.5 h; library: site-saturation at positions 5, 18, 19, 20
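Note: peptides expressed intracellularly from a pBAD plasmid library in pooled LB shake-flask culture, induced with 0.3% L-arabinose, DNA abundance read by NGS, three biological replicates, DESeq2 with apeglm shrinkage.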

RRIRDRPPRLPRPRPRPWSMPRP and RRIRPRPPRLPRPRPRPKDQPRP are within 0.2 log units of each other in “shrunken log2 fold change” value: -0.0018 for the first, 0.111 for the second.

Compared with RRIRFRPPRLPRPRPRPTNTPRP, RRIRYRPPRLPRPRPRPRQIPRP is higher in “shrunken log2 fold change” value: -0.414 for the first, -0.137 for the second.

RRIRNRPPRLPRPRPRPSLNPRP and RRIRHRPPRLPRPRPRPCYKPRP are within 0.2 log units of each other in “shrunken log2 fold change” value: -0.335 for the first, -0.522 for the second.

Going from RRIRFRPPRLPRPRPRPGSWPRP to RRIRVRPPRLPRPRPRPGYFPRP, the “shrunken log2 fold change” value falls from 0.244 to -0.366.

RRIRNRPPRLPRPRPRPVPFPRP and RRIRWRPPRLPRPRPRPTFGPRP are within 0.2 log units of each other in “shrunken log2 fold change” value: 0.041 for the first, -0.0806 for the second.

Going from RRIRPRPPRLPRPRPRPQLEPRP to RRIRQRPPRLPRPRPRPVYIPRP, the “shrunken log2 fold change” value falls from 0.376 to -0.214.

Compared with RRIRNRPPRLPRPRPRPCDKPRP, RRIRYRPPRLPRPRPRPSWIPRP is lower in “shrunken log2 fold change” value: 0.14 for the first, -0.341 for the second.

Going from RRIRCRPPRLPRPRPRPILEPRP to RRIRWRPPRLPRPRPRPAGLPRP, the “shrunken log2 fold change” value rises from -0.247 to 0.289.

RRIRGRPPRLPRPRPRPQQWPRP and RRIRYRPPRLPRPRPRPADDPRP are within 0.2 log units of each other in “shrunken log2 fold change” value: 0.067 for the first, -0.0179 for the second.

Compared with RRIRHRPPRLPRPRPRPPIGPRP, RRIRGRPPRLPRPRPRPSLGPRP is higher in “shrunken log2 fold change” value: 0.0617 for the first, 0.488 for the second.

Going from RRIRTRPPRLPRPRPRPIGQPRP to RRIRKRPPRLPRPRPRPPTQPRP, the “shrunken log2 fold change” value rises from -0.0623 to 0.301.

Compared with RRIRFRPPRLPRPRPRPCNHPRP, RRIRRRPPRLPRPRPRPKLNPRP is higher in “shrunken log2 fold change” value: -0.41 for the first, 0.101 for the second.

Going from RRIRPRPPRLPRPRPRPLTKPRP to RRIRGRPPRLPRPRPRPFPEPRP, the “shrunken log2 fold change” value rises from 0.0122 to 0.56.

Compared with RRIRQRPPRLPRPRPRPPWLPRP, RRIRNRPPRLPRPRPRPSWHPRP is lower in “shrunken log2 fold change” value: 0.307 for the first, -0.535 for the second.

RRIRWRPPRLPRPRPRPGPIPRP and RRIRWRPPRLPRPRPRPHWFPRP are within 0.2 log units of each other in “shrunken log2 fold change” value: 0.171 for the first, 0.0392 for the second.

Going from RRIRARPPRLPRPRPRPAIEPRP to RRIRDRPPRLPRPRPRPNGTPRP, the “shrunken log2 fold change” value falls from 0.396 to 0.00868.

First: RRIRQRPPRLPRPRPRPTAFPRP
Second: RRIRKRPPRLPRPRPRPYRRPRP
The “shrunken log2 fold change” value of the first is higher: 0.321 for the first, -0.105 for the second.

Compared with RRIRFRPPRLPRPRPRPIKFPRP, RRIRCRPPRLPRPRPRPVNKPRP is higher in “shrunken log2 fold change” value: -0.587 for the first, -0.196 for the second.

RRIRMRPPRLPRPRPRPTYSPRP and RRIRLRPPRLPRPRPRPYPYPRP are within 0.2 log units of each other in “shrunken log2 fold change” value: 0.0196 for the first, -0.076 for the second.

Compared with RRIRGRPPRLPRPRPRPMHIPRP, RRIRFRPPRLPRPRPRPCKYPRP is lower in “shrunken log2 fold change” value: 1.77 for the first, -0.373 for the second.

RRIRERPPRLPRPRPRPQWGPRP and RRIRTRPPRLPRPRPRPPFMPRP are within 0.2 log units of each other in “shrunken log2 fold change” value: -0.252 for the first, -0.194 for the second.

Compared with RRIRMRPPRLPRPRPRPPANPRP, RRIRIRPPRLPRPRPRPINWPRP is lower in “shrunken log2 fold change” value: 1.17 for the first, -0.402 for the second.

First: RRIRTRPPRLPRPRPRPYWLPRP
Second: RRIRMRPPRLPRPRPRPVHRPRP
The “shrunken log2 fold change” value of the first is lower: -0.486 for the first, 0.872 for the second.

RRIRNRPPRLPRPRPRPTEGPRP and RRIRNRPPRLPRPRPRPVGYPRP are within 0.2 log units of each other in “shrunken log2 fold change” value: 0.0116 for the first, 0.025 for the second.

RRIRFRPPRLPRPRPRPFWYPRP and RRIRERPPRLPRPRPRPIVRPRP are within 0.2 log units of each other in “shrunken log2 fold change” value: -0.102 for the first, -0.0604 for the second.

RRIRKRPPRLPRPRPRPEDCPRP and RRIRARPPRLPRPRPRPEEWPRP are within 0.2 log units of each other in “shrunken log2 fold change” value: -0.00264 for the first, 0.0407 for the second.

Going from RRIRARPPRLPRPRPRPRNRPRP to RRIRPRPPRLPRPRPRPLHCPRP, the “shrunken log2 fold change” value falls from 0.0657 to -0.382.

Compared with RRIRGRPPRLPRPRPRPMLDPRP, RRIRCRPPRLPRPRPRPLFWPRP is lower in “shrunken log2 fold change” value: 0.485 for the first, 0.153 for the second.

Compared with RRIRSRPPRLPRPRPRPRAQPRP, RRIRPRPPRLPRPRPRPVYAPRP is lower in “shrunken log2 fold change” value: 0.106 for the first, -0.261 for the second.

Compared with RRIRVRPPRLPRPRPRPGDVPRP, RRIRQRPPRLPRPRPRPLTPPRP is higher in “shrunken log2 fold change” value: -0.262 for the first, 0.31 for the second.

RRIRQRPPRLPRPRPRPESIPRP and RRIRGRPPRLPRPRPRPGLQPRP are within 0.2 log units of each other in “shrunken log2 fold change” value: 0.0598 for the first, 0.236 for the second.

First: RRIRQRPPRLPRPRPRPFCWPRP
Second: RRIRARPPRLPRPRPRPDVFPRP
The “shrunken log2 fold change” value of the first is higher: 0.42 for the first, 0.176 for the second.

Compared with RRIRLRPPRLPRPRPRPMMVPRP, RRIRFRPPRLPRPRPRPDCEPRP is higher in “shrunken log2 fold change” value: -0.145 for the first, 0.175 for the second.

First: RRIRPRPPRLPRPRPRPCLLPRP
Second: RRIRLRPPRLPRPRPRPFSDPRP
The “shrunken log2 fold change” value of the first is lower: -0.258 for the first, 0.0391 for the second.

RRIRYRPPRLPRPRPRPFSIPRP and RRIRFRPPRLPRPRPRPETKPRP are within 0.2 log units of each other in “shrunken log2 fold change” value: -0.000407 for the first, -0.0125 for the second.

RRIRNRPPRLPRPRPRPCQTPRP and RRIRIRPPRLPRPRPRPETEPRP are within 0.2 log units of each other in “shrunken log2 fold change” value: -0.0964 for the first, 0.0848 for the second.

Compared with RRIRDRPPRLPRPRPRPDWRPRP, RRIRIRPPRLPRPRPRPAYFPRP is lower in “shrunken log2 fold change” value: 0.183 for the first, -0.411 for the second.

First: RRIRGRPPRLPRPRPRPESTPRP
Second: RRIRKRPPRLPRPRPRPHSDPRP
The “shrunken log2 fold change” value of the first is higher: 1.63 for the first, 0.0765 for the second.

Going from RRIRDRPPRLPRPRPRPSEAPRP to RRIRARPPRLPRPRPRPEPTPRP, the “shrunken log2 fold change” value rises from 0.0437 to 0.832.

Compared with RRIRMRPPRLPRPRPRPTNMPRP, RRIRSRPPRLPRPRPRPRLDPRP is higher in “shrunken log2 fold change” value: -0.0158 for the first, 0.25 for the second.

Compared with RRIRDRPPRLPRPRPRPLQEPRP, RRIRYRPPRLPRPRPRPMYGPRP is lower in “shrunken log2 fold change” value: 0.223 for the first, -0.00999 for the second.

First: RRIRGRPPRLPRPRPRPYWFPRP
Second: RRIRCRPPRLPRPRPRPLALPRP
The “shrunken log2 fold change” value of the first is higher: 0.105 for the first, -0.621 for the second.

RRIRGRPPRLPRPRPRPMSDPRP and RRIRVRPPRLPRPRPRPLRHPRP are within 0.2 log units of each other in “shrunken log2 fold change” value: 0.34 for the first, 0.288 for the second.

First: RRIRVRPPRLPRPRPRPAKAPRP
Second: RRIRSRPPRLPRPRPRPRSSPRP
The “shrunken log2 fold change” value of the first is higher: 0.0673 for the first, -0.269 for the second.

Compared with RRIRHRPPRLPRPRPRPHWMPRP, RRIRCRPPRLPRPRPRPQVIPRP is higher in “shrunken log2 fold change” value: -0.785 for the first, -0.386 for the second.

First: RRIRIRPPRLPRPRPRPNHDPRP
Second: RRIRGRPPRLPRPRPRPSLAPRP
The “shrunken log2 fold change” value of the first is lower: -0.832 for the first, 1.09 for the second.

Going from RRIRQRPPRLPRPRPRPYWQPRP to RRIRGRPPRLPRPRPRPLRFPRP, the “shrunken log2 fold change” value rises from -0.411 to 0.917.

Compared with RRIRNRPPRLPRPRPRPALDPRP, RRIRSRPPRLPRPRPRPNPPPRP is lower in “shrunken log2 fold change” value: 0.113 for the first, -0.222 for the second.

Compared with RRIRVRPPRLPRPRPRPSFYPRP, RRIRKRPPRLPRPRPRPTGGPRP is higher in “shrunken log2 fold change” value: -0.872 for the first, 0.13 for the second.

RRIRCRPPRLPRPRPRPDVPPRP and RRIRHRPPRLPRPRPRPASLPRP are within 0.2 log units of each other in “shrunken log2 fold change” value: -0.0242 for the first, -0.0081 for the second.

First: RRIRQRPPRLPRPRPRPYWLPRP
Second: RRIRARPPRLPRPRPRPTYDPRP
The “shrunken log2 fold change” value of the first is lower: -0.307 for the first, -0.0892 for the second.

First: RRIRYRPPRLPRPRPRPSKSPRP
Second: RRIRGRPPRLPRPRPRPLLDPRP
The “shrunken log2 fold change” value of the first is lower: -0.257 for the first, 2.07 for the second.

Compared with RRIRTRPPRLPRPRPRPAEKPRP, RRIRKRPPRLPRPRPRPFIEPRP is lower in “shrunken log2 fold change” value: 0.0882 for the first, -0.205 for the second.

RRIRTRPPRLPRPRPRPWQEPRP and RRIRGRPPRLPRPRPRPELCPRP are within 0.2 log units of each other in “shrunken log2 fold change” value: 0.0948 for the first, 0.18 for the second.

In the case of RRIRERPPRLPRPRPRPTFGPRP, the “shrunken log2 fold change” value is reported as 0.0107.
